Source: PMC7393112

Substrate: C[C@@H](O)C(=O)O
Experiment: purified protein
Conditions: DCIP as co-substrate, D-lactate 5-300 µM, pH of the kinetic assay not given (optimum pH 8.75)

B1: OsD-LDH2 (Oryza sativa Japonica Group) (protein)
chain: MARRAAAGLLRRHLGPLAAGETLQARGMYPKQYGAANHAFSRFYSIQGQQRSLYGFRTNVETDDTQQSARMNFEVQKRSFSSAAAHVQRNPAYSVLNSDDVSYFKSILGDSGVVQDEDRVSVANMDWMGKYKGSSQLLLLPKSTAEVSKILSYCNSRRLAVVPQGGNTGLVGGSVPVYDEVIISLGGMDKIITFDNVNGILTCEAGCVLENLSSYVENKGFIMPLDLGAKGSCHIGGNISTNAGGLRFIRYGSLHGSVLGLEVVLADGTVLDMLTTLRKDNTGYDLKHLFIGSEGSLGIVTKIAILTPAKLPSTNVAFLSCNDYISCQKLLLAARRSLGEILSAFEFMDRHCINLAMKYLEGVHNPLPVSPFNFYVLIETTGSDESYDKAKLEAFLLRSMEDGLVADGVIAQDISQASNFWRIREGISEASVKVGAVYKYDLSIPVEKLYDIVEEMRSRVGDMGQVLGYGHLGDGNLHLNILSTKYSDKMLAQIEPFVYEWTSKQRGSISAEHGLGLMKAEKIHYSKSSEAVQLMASIKKLLDPNSILNPYKVLPQSVL
Km: 8.045 ± 1.7 µM
kcat: 3.27 s⁻¹
kcat/Km: 407000 M⁻¹ s⁻¹
